Earlier results as cited in article PMC8780439.

Key:
[1] = target: Synaptotagmin I (Homo sapiens) (UniProt P21579)
[2] = target: Synaptotagmin II (Homo sapiens) (UniProt Q8N9I0)
[3] = target: Synaptotagmin II (Mus musculus) (UniProt P46097)
Chain of UniProt P46097 (P46097 whole entry): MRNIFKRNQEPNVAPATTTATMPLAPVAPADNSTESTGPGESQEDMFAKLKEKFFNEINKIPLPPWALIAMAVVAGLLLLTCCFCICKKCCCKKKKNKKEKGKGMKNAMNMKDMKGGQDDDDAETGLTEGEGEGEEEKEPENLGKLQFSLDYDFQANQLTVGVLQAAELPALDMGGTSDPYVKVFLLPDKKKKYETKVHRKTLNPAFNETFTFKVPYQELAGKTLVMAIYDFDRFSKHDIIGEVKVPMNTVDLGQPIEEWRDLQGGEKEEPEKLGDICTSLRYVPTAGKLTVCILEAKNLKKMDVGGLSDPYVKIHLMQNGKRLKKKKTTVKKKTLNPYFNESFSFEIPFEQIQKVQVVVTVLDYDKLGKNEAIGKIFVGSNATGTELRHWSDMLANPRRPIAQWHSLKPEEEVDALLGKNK

Chain of UniProt Q8N9I0 (Q8N9I0 whole entry): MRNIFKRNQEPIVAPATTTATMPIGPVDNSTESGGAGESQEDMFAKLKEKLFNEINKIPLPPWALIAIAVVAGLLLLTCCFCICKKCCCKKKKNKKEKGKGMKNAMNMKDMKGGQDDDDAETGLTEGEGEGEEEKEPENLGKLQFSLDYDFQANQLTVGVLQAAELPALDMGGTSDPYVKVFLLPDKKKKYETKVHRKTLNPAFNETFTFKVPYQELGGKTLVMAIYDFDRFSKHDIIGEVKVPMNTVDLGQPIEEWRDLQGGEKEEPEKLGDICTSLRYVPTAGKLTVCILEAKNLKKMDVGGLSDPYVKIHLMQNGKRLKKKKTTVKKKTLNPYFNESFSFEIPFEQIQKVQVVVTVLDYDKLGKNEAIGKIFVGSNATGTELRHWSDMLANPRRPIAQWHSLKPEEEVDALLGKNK
Chain of UniProt P21579 (P21579 whole entry): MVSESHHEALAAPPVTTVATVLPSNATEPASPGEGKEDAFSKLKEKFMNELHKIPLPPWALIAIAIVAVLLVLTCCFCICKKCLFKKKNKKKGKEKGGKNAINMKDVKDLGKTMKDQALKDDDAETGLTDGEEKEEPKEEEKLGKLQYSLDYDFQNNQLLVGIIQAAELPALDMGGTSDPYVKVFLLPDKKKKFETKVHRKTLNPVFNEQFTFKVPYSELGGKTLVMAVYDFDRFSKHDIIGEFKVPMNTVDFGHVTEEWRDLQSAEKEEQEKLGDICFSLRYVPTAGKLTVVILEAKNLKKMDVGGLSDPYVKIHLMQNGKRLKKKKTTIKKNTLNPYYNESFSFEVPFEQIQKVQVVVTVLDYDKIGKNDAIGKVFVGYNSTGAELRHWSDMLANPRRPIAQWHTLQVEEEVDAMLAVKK

Row | Substance | Kd [1] [µM] | Kd [2] [µM] | Kd [3] [µM]
1 | BoNT/B (from UniProt P10844) | > 20 |  | 
2 | BoNT/B heavy chain (from UniProt B1INP5) |  | > 20 | 0.13
